Assay results: patent US20070086998A1 (GPC BIOTECH, published 2007)

T1: HLA-DR on PRIESS cells (DRA*0101/DRB1*0401) (human, UniProt P01903 26-254; P01911 30-266)
T1 MHC II alpha: not shown
T1 MHC II beta: not shown


What was measured:
Test in all cases: cell-based or functional assay
[1] = molecular target: chimeric DR-IE (human-mouse chimeric MHC class II molecule) (human; murine)
[2] = molecular target: T1, HLA-DR on PRIESS cells …
HLA-DR on LG-2 cells [3] = molecular target: HLA-DR on LG-2 cells (human)
HLA-DR on LG-2 cells [4] = molecular target: HLA-DR on LG-2 cells (human); remark: listed apart in the source
[5] = molecular target: T1, HLA-DR on PRIESS cells …

Binder	IC50, IL-2 secretion of T-Hyb 1 cells stimulated by 0401-IE transgenic APC; Fab [1]	Maximum inhibition(%), IL-2 secretion of T-Hyb 1 cells; Fab [1]	EC50 of cell killing for bivalent agent; PRIESS; Fab cross-linked with anti-FLAG M2 [2]	also measured
MS-GPC-8-6-47 (Fab) (Fab, V domains shown) VH: QVQLKESGPALVKPTQTLTLTCTFSGFSLSTSGVGVGWIRQPPGKALEWLALIDWDDDKYYSTSLKTRLTISKDTSKNQVVLTMTNMDPVDTATYYCARSPRYRGAFDYWGQGTLVTVSS VL: DIVLTQPPSVSGAPGQRVTISCSGSESNIGSNYVSWYQQLPGTAPKLLIYDNNQRPSGVPDRFSGSKSGTSASLAITGLQSEDEADYYCQSYDYDHYVFGGGTKLTVLG	2.6 nM (Fab concentration/2)	100%		
MS-GPC-8-6-2 (IgG form) (antibody, V domains shown) VH: QVELKESGPALVKPTQTLTLTCTFSGFSLSTSGVGVGWIRQPPGKALEWLALIDWDDDKYYSTSLKTRLTISKDTSKNQVVLTMTNMDPVDTATYYCARSPRYRGAFDYWGQGTLVTVSS VL: DIVLTQPPSVSGAPGQRVTISCSGSESNIGSNYVHWYQQLPGTAPKLLIYDNNQRPSGVPDRFSGSKSGTSASLAITGLQSEDEADYYCQSYDYDHYVFGGGTKLTVLG				IC50, IL-2 secretion of T-Hyb 1 cells stimulated by 0401-IE transgenic APC; IgG [1]: 3.6 nM; Maximum inhibition(%), IL-2 secretion of T-Hyb 1 cells; IgG [1]: 100%
MS-GPC-8-6 (IgG form) (antibody, V domains shown) VH: QVELKESGPALVKPTQTLTLTCTFSGFSLSTSGVGVGWIRQPPGKALEWLALIDWDDDKYYSTSLKTRLTISKDTSKNQVVLTMTNMDPVDTATYYCARSPRYRGAFDYWGQGTLVTVSS VL: DIVLTQPPSVSGAPGQRVTISCSGSSSNIGSNYVSWYQQLPGTAPKLLIYDNNQRPSGVPDRFSGSKSGTSASLAITGLQSEDEADYYCQSYDYDHYVFGGGTKLTVLG				IC50, IL-2 secretion of T-Hyb 1 cells stimulated by 0401-IE transgenic APC; IgG [1]: 6.7 nM; Maximum inhibition(%), IL-2 secretion of T-Hyb 1 cells; IgG [1]: 100%
MS-GPC-8-6-2 (Fab) (Fab, V domains shown) VH: QVQLKESGPALVKPTQTLTLTCTFSGFSLSTSGVGVGWIRQPPGKALEWLALIDWDDDKYYSTSLKTRLTISKDTSKNQVVLTMTNMDPVDTATYYCARSPRYRGAFDYWGQGTLVTVSS VL: DIVLTQPPSVSGAPGQRVTISCSGSESNIGSNYVHWYQQLPGTAPKLLIYDNNQRPSGVPDRFSGSKSGTSASLAITGLQSEDEADYYCQSYDYDHYVFGGGTKLTVLG	4.7 nM (Fab concentration/2)	100%	8 nM	
MS-GPC-8-27-7 (Fab) (Fab, V domains shown) VH: QVQLKESGPALVKPTQTLTLTCTFSGFSLSTSGVGVGWIRQPPGKALEWLALIDWDDDKYYSTSLKTRLTISKDTSKNQVVLTMTNMDPVDTATYYCARSPRYRGAFDYWGQGTLVTVSS VL: DIVLTQPPSVSGAPGQRVTISCSGSESNIGNNYVGWYQQLPGTAPKLLIYDNNQRPSGVPDRFSGSKSGTSASLAITGLQSEDEADYYCQSYDMNVHVFGGGTKLTVLG	5.9 nM (Fab concentration/2)	100%		
MS-GPC-8-17 (Fab) (Fab, V domains shown) VH: QVQLKESGPALVKPTQTLTLTCTFSGFSLSTSGVGVGWIRQPPGKALEWLALIDWDDDKYYSTSLKTRLTISKDTSKNQVVLTMTNMDPVDTATYYCARSPRYRGAFDYWGQGTLVTVSS VL: DIVLTQPPSVSGAPGQRVTISCSGSSSNIGSNYVSWYQQLPGTAPKLLIYDNNQRPSGVPDRFSGSKSGTSASLAITGLQSEDEADYYCQSYDFSVYVFGGGTKLTVLG			16 nM	
MS-GPC-8-10-57 (Fab) (Fab, V domains shown) VH: QVQLKESGPALVKPTQTLTLTCTFSGFSLSTSGVGVGWIRQPPGKALEWLALIDWDDDKYYSTSLKTRLTISKDTSKNQVVLTMTNMDPVDTATYYCARSPRYRGAFDYWGQGTLVTVSS VL: DIVLTQPPSVSGAPGQRVTISCSGSESNIGNNYVQWYQQLPGTAPKLLIYDNNQRPSGVPDRFSGSKSGTSASLAITGLQSEDEADYYCQSYDLIRHVFGGGTKLTVLG	2.9 nM (Fab concentration/2)	100%		EC50 of cell killing for bivalent agent; LG2; Fab cross-linked with anti-FLAG M2 (HLA-DR on LG-2 cells [3]): 7.2 nM
MS-GPC-8-6 (Fab) (Fab, V domains shown) VH: QVQLKESGPALVKPTQTLTLTCTFSGFSLSTSGVGVGWIRQPPGKALEWLALIDWDDDKYYSTSLKTRLTISKDTSKNQVVLTMTNMDPVDTATYYCARSPRYRGAFDYWGQGTLVTVSS VL: DIVLTQPPSVSGAPGQRVTISCSGSSSNIGSNYVSWYQQLPGTAPKLLIYDNNQRPSGVPDRFSGSKSGTSASLAITGLQSEDEADYYCQSYDYDHYVFGGGTKLTVLG	20 nM (Fab concentration/2)	100%		
MS-GPC-10-Fab (Fab, V domains shown) VH: QVQLKESGPALVKPTQTLTLTCTFSGFSLSTSGVGVGWIRQPPGKALEWLALIDWDDDKYYSTSLKTRLTISKDTSKNQVVLTMTNMDPVDTATYYCARQLHYRGGFDLWGQGTLVTVSS VL: DIVLTQPPSVSGAPGQRVTISCSGSSSNIGSNYVSWYQQLPGTAPKLLIYDNNQRPSGVPDRFSGSKSGTSASLAITGLQSEDEADYYCQSYDLTMGVFGGGTKLTVLG			33 nM	
MS-GPC-1-Fab (Fab, V domains shown) VH: QVQLKESGPALVKPTQTLTLTCTFSGFSLSTSGVGVGWIRQPPGKALEWLALIDWDDDKYYSTSLKTRLTISKDTSKNQVVLTMTNMDPVDTATYYCARQYGHRGGFDHWGQGTLVTVSS VL: DIVLTQPPSVSGAPGQRVTISCSGSSSNIGSNYVSWYQQLPGTAPKLLIYDNNQRPSGVPDRFSGSKSGTSASLAITGLQSEDEADYYCQSYDFNESVFGGGTKLTVLG			54 nM	
MS-GPC-8-27-10 (Fab) (Fab, V domains shown) VH: QVQLKESGPALVKPTQTLTLTCTFSGFSLSTSGVGVGWIRQPPGKALEWLALIDWDDDKYYSTSLKTRLTISKDTSKNQVVLTMTNMDPVDTATYYCARSPRYRGAFDYWGQGTLVTVSS VL: DIVLTQPPSVSGAPGQRVTISCSGSESNIGANYVNWYQQLPGTAPKLLIYDNNQRPSGVPDRFSGSKSGTSASLAITGLQSEDEADYYCQSYDMNVHVFGGGTKLTVLG	7.3 nM (Fab concentration/2)	100%		
MS-GPC-8-6-19 (Fab) (Fab, V domains shown) VH: QVQLKESGPALVKPTQTLTLTCTFSGFSLSTSGVGVGWIRQPPGKALEWLALIDWDDDKYYSTSLKTRLTISKDTSKNQVVLTMTNMDPVDTATYYCARSPRYRGAFDYWGQGTLVTVSS VL: DIVLTQPPSVSGAPGQRVTISCSGSESNIGSNYVAWYQQLPGTAPKLLIYDNNQRPSGVPDRFSGSKSGTSASLAITGLQSEDEADYYCQSYDYDHYVFGGGTKLTVLG	5.3 nM (Fab concentration/2)	100%		
MS-GPC-8-6-27 (Fab) (Fab, V domains shown) VH: QVQLKESGPALVKPTQTLTLTCTFSGFSLSTSGVGVGWIRQPPGKALEWLALIDWDDDKYYSTSLKTRLTISKDTSKNQVVLTMTNMDPVDTATYYCARSPRYRGAFDYWGQGTLVTVSS VL: DIVLTQPPSVSGAPGQRVTISCSGSDSNIGANYVTWYQQLPGTAPKLLIYDNNQRPSGVPDRFSGSKSGTSASLAITGLQSEDEADYYCQSYDYDHYVFGGGTKLTVLG	3 nM (Fab concentration/2)	100%		
MS-GPC-8-6-13 (Fab) (Fab, V domains shown) VH: QVQLKESGPALVKPTQTLTLTCTFSGFSLSTSGVGVGWIRQPPGKALEWLALIDWDDDKYYSTSLKTRLTISKDTSKNQVVLTMTNMDPVDTATYYCARSPRYRGAFDYWGQGTLVTVSS VL: DIVLTQPPSVSGAPGQRVTISCSGSESNIGANYVTWYQQLPGTAPKLLIYDNNQRPSGVPDRFSGSKSGTSASLAITGLQSEDEADYYCQSYDYDHYVFGGGTKLTVLG	2.1 nM (Fab concentration/2)	100%		
MS-GPC-8-27-41 (Fab) (Fab, V domains shown) VH: QVQLKESGPALVKPTQTLTLTCTFSGFSLSTSGVGVGWIRQPPGKALEWLALIDWDDDKYYSTSLKTRLTISKDTSKNQVVLTMTNMDPVDTATYYCARSPRYRGAFDYWGQGTLVTVSS VL: DIVLTQPPSVSGAPGQRVTISCSGSESNIGNNYVQWYQQLPGTAPKLLIYDNNQRPSGVPDRFSGSKSGTSASLAITGLQSEDEADYYCQSYDMNVHVFGGGTKLTVLG	3.6 nM (Fab concentration/2)	100%	7.7 nM	EC50 of cell killing for bivalent agent; LG2; Fab cross-linked with anti-FLAG M2 (HLA-DR on LG-2 cells [3]): 7.2 nM
MS-GPC-8-6-13 (IgG4 form) (antibody, V domains shown) VH: QVELKESGPALVKPTQTLTLTCTFSGFSLSTSGVGVGWIRQPPGKALEWLALIDWDDDKYYSTSLKTRLTISKDTSKNQVVLTMTNMDPVDTATYYCARSPRYRGAFDYWGQGTLVTVSS VL: DIVLTQPPSVSGAPGQRVTISCSGSESNIGANYVTWYQQLPGTAPKLLIYDNNQRPSGVPDRFSGSKSGTSASLAITGLQSEDEADYYCQSYDYDHYVFGGGTKLTVLG				IC50, IL-2 secretion of T-Hyb 1 cells stimulated by 0401-IE transgenic APC; IgG [1]: 0.42 nM; Maximum inhibition(%), IL-2 secretion of T-Hyb 1 cells; IgG [1]: 100%; % Killing by mAb; LG-2 (DR 1,1); 50 nM, 4 h (HLA-DR on LG-2 cells [4]): 82%; % Killing by mAb; PRIESS (DR 4,4); 50 nM, 4 h [5]: 74%
